Assay results: article PMC9959518, “Influence of the Drug Position on Bioactivity in Angiopep-2—Daunomycin Conjugates” (International Journal of Molecular Sciences, 2023)

Key:
[1] = Degradation in rat liver lysosomal homogenate followed by HPLC-MS; type: in vitro ADME
Method: The conjugates were treated with lysosomal homogenate for 5 min, 1 h, 6 h, 24 h, and 72 h, and the degradation was followed by HPLC-MS. Control studies investigating conjugates in buffer (without lysosomal homogenate) were also performed, and for these, all conjugates were stable. […] At 6 h, it was the main drug-containing metabolite, and at 72 h, only this Dau-containing fragment could be detected. This time-dependent pattern was also observed in the case of conjugate 2, where Dau was attached to the side chain of Lys in position 15, and the formed smallest metabolite was H-Lys(Dau=Aoa)-OH. […] It is likely that, in this case, a large steric hindrance occurred, and the enzymes were not able to access the peptide bonds around ^10Lys. This observation might explain the discrepancy between the efficient cellular uptake and the lower anticancer activity of this conjugate.
A stock solution with a concentration of 2.5 μg/μL was prepared from the conjugates in distilled water, and this was diluted 100× with 0.2 M sodium acetate buffer (pH 5.03). The rat liver lysosomal homogenate (16.6 μg/μL) was diluted 20× with the same buffer, and then the two solutions were mixed in a 1:1 (protein:peptide, m/m) ratio. In each case, control measurements were also performed, in which buffer was added to the conjugates instead of the lysosomal homogenate. The solutions were stirred at 600 rpm at 37 °C in a thermostat (ThermoMixer, Eppendorf AG, Hamburg, Germany), and after 5 min, 1 h, 6 h, 24 h, and 72 h, 50 μL samples were taken. Each reaction was quenched with 5 μL formic acid and the samples were stored frozen until analysis.
The HPLC-MS analysis of the samples was performed with a Dionex 3000 HPLC-Q Exactive Focus hybrid quadrupole-orbitrap mass spectrometer (Thermo Fisher Scientific, Bremen, Germany). For separation, a Supelco Ascentis C18 column (3 μm, 100 Å, 150 × 2.1 mm; Merck, Darmstadt, Germany) and gradient elution (0 min 2% B, 1 min 2% B, 17 min 90% B; A eluent: 0.1% formic acid/distilled water, eluent B: 0.1% formic acid/acetonitrile + distilled water (80:20, v/v%), flow rate 0.2 mL/min, 40 °C) was used, and high-resolution mass spectra were recorded in the range of 200–1800 m/z. The data were analyzed using the Xcalibur program (Thermo Fisher Scientific).

[2] = system: U87 human glioblastoma cells; test: In vitro cellular uptake by flow cytometry; type: cell-based; conditions: 50 µM
Method: The in vitro cytostatic effect of any peptide–drug conjugate is influenced by many factors. One of the main effects is the cellular uptake of the conjugates by cells. Therefore, we compared the cellular uptake of the different conjugates on U87 glioblastoma cells. The cells were incubated with the conjugates (2, 10, and 50 µM) for 1 h. Then, after a washing step, the cells were treated with trypsin to remove the cell surface-bound conjugates and other cell surface structures that enable non-specific binding, so only the quantity of the conjugates actually entering the cells was detected by flow cytometry. […] The cellular uptake of the conjugates was concentration-dependent. […]
U87 cells were plated into 24-well tissue culturing plates with the initial cell number of 10^5 cells/well 24 h before the experiment. […] Data were recorded for 5000–10,000 cells at λex = 488 nm. The fluorescence mean was calculated. Daunomycin-positive cells were also gated from the living cell population, and the percentage of daunomycin-containing cells was calculated. The gating was determined from the untreated control cell count/fluorescence intensity histogram by adjusting the lowest fluorescence intensity value of the gated cells to the highest fluorescence intensity value of the live population of untreated control cells. Cells showing fluorescence intensities above this were considered as Dau-positive. […]

[3] = system: U87 human glioblastoma cells; type: cell-based; conditions: MTT test, 0.05–50 µM, treated 24 h (method: overnight), washed, further 48 h (method: 72 h) at 37 °C, two independent experiments with four parallel measurements
Method: The in vitro cytostatic effect of the synthesized peptide (1) and daunomycin-peptide conjugates (2–8) was investigated on U87 human glioblastoma cells. The cells were treated with the peptide and conjugates at different concentrations (0.05–50 μM) for 24 h, and after a washing step, the cells were incubated for another […] at 37 °C. The cytostatic effect of the compounds was determined using the MTT test.
U87 human glioblastoma cell line was cultured in DMEM supplemented with 10% FBS, 2 mM L-glutamine, penicillin–streptomycin antibiotic mixture (50 IU/mL and 50 μg/mL, respectively), 1 mM sodium pyruvate, and 1% non-essential amino acid mixture. The cell culture was maintained at 37 °C in a humidified atmosphere with 5% CO2. The U87 cell line was a generous gift of Dr. József Tóvári (Department of Experimental Pharmacology, National Institute of Oncology, Budapest, Hungary).
For determining the cytostatic effect of the conjugates, U87 cells were grown to confluency and then divided into 96-well tissue culture plates with an initial cell number of 5.0 × 10^3 cells/well. After 24 h incubation at 37 °C, the cells were treated with the compounds overnight in the concentration range of 0.05–50 μM in 200 μL final volume containing 1.0 v/v% DMSO, whereas control cells were treated only with serum-free medium or with 1.0 v/v% DMSO at the same conditions. After the incubation, cells were washed twice with serum-free medium, then the cells were cultured for an additional 72 h in 10% serum-containing medium at 37 °C. Following that, MTT solution (at c = 0.37 mg/mL final concentration) was added to each well. The respiratory chain [32] and other electron transport systems reduced MTT and thereby formed non-water-soluble violet formazan crystals within the cells. The amount of these crystals can be determined by spectrophotometry and serves as an estimate for the number of mitochondria in addition to the number of living cells in the well [35]. After 3 h of incubation with MTT, the cells were centrifuged for 5 min at 2000 rpm and the supernatant was removed. The obtained formazan crystals were dissolved in DMSO (100 µL), and the optical density (OD) of the samples was measured at λ = 540 nm and 620 nm, respectively, using ELISA Reader (iEMS Reader, Labsystems, Finland). The OD620 values were subtracted from the OD540 values. The percent of cytostasis was calculated with the following equation:(1) Cytostatic effect (%)=1−ODtreated/ODcontrol×100 where the ODtreated and ODcontrol values correspond to the optical densities of the treated and the control wells, respectively. In each case, two independent experiments were carried out with four parallel measurements. Cytostasis was plotted as a function of concentration, and the half-maximal inhibitory concentration was calculated based on a sigmoid curve fitted on the data points using Microcal™ Origin 2018 software. IC50 represents the concentration of a compound that is required for 50% inhibition, expressed in micromolar units.

For `COc1cccc2c1C(=O)c1c(O)c3c(c(O)c1C2=O)C[C@@](O)(C(C)=NOCC(=O)NCC(=O)N[C@@H](Cc1ccccc1)C(=O)N[C@@H](CC(C)C)C(=O)NCC(=O)NCCCC[C@H](NC(=O)CNC(=O)[C@H](CCCNC(=N)N)NC(=O)[C@H](CO)NC(=O)CNC(=O)CNC(=O)[C@H](Cc1ccc(O)cc1)NC(=O)[C@H](Cc1ccccc1)NC(=O)[C@H](Cc1ccccc1)NC(=O)[C@@H](N)[C@@H](C)O)C(=O)N[C@@H](CCCNC(=N)N)C(=O)N[C@@H](CC(N)=O)C(=O)N[C@@H](CC(N)=O)C(=O)N[C@@H](Cc1ccccc1)C(=O)N[C@@H](CCCCN)C(=O)N[C@H](C(=O)N[C@@H](CCC(=O)O)C(=O)N[C@@H](CCC(=O)O)C(=O)N[C@@H](Cc1ccc(O)cc1)C(=O)O)[C@@H](C)O)C[C@@H]3O[C@H]1C[C@H](N)[C@H](O)[C@H](C)O1` [compound 9, H-TFFYGGSRGK(Dau=Aoa-GFLG)RNNFKTEEY-OH], which “release of Dau=Aoa-Gly-OH (in words)” value ([1]; pH 5.03, 37 °C) is on record?
The value was “particularly slow”.

And the “toxicity observed during the cellular uptake measurement (live cells in % of untreated control)” value [2]?
Its value is “slight toxicity”.

And the IC50 [3]?
Its IC50 is 16.9 ± 5.6 µM.

With `COc1cccc2c1C(=O)c1c(O)c3c(c(O)c1C2=O)C[C@@](O)(C(C)=NOCC(=O)N[C@H](C(=O)N[C@@H](C)C(=O)NCC(=O)NCC(=O)NCCCC[C@H](NC(=O)CNC(=O)[C@H](CCCNC(=N)N)NC(=O)[C@H](CO)NC(=O)CNC(=O)CNC(=O)[C@H](Cc1ccc(O)cc1)NC(=O)[C@H](Cc1ccccc1)NC(=O)[C@H](Cc1ccccc1)NC(=O)[C@@H](N)[C@@H](C)O)C(=O)N[C@@H](CCCNC(=N)N)C(=O)N[C@@H](CC(N)=O)C(=O)N[C@@H](CC(N)=O)C(=O)N[C@@H](Cc1ccccc1)C(=O)N[C@@H](CCCCN)C(=O)N[C@H](C(=O)N[C@@H](CCC(=O)O)C(=O)N[C@@H](CCC(=O)O)C(=O)N[C@@H](Cc1ccc(O)cc1)C(=O)O)[C@@H](C)O)C(C)C)C[C@@H]3O[C@H]1C[C@H](N)[C@H](O)[C@H](C)O1` [compound 11, H-TFFYGGSRGK(Dau=Aoa-VAGG)RNNFKTEEY-OH] as the compound, how does the “time of appearance of the Dau=Aoa-Val-Ala-OH fragment” value ([1]; pH 5.03, 37 °C) read?
Its value is 1 h.

And the “amount of Dau=Aoa-Val-OH detected after 6 h” value ([1]; pH 5.03, 37 °C, 6 h)?
Its value is “high amounts”.

What about the IC50 [3] of the same compound?
The IC50 was 20.2 ± 3 µM.

With `COc1cccc2c1C(=O)c1c(O)c3c(c(O)c1C2=O)C[C@@](O)(C(C)=NOCC(=O)NCCCC[C@H](NC(=O)CNC(=O)[C@H](CCCNC(=N)N)NC(=O)[C@H](CO)NC(=O)CNC(=O)CNC(=O)[C@H](Cc1ccc(O)cc1)NC(=O)[C@H](Cc1ccccc1)NC(=O)[C@H](Cc1ccccc1)NC(=O)[C@@H](NC(=O)CON=C(C)[C@]1(O)Cc2c(O)c4c(c(O)c2[C@@H](O[C@H]2C[C@H](N)[C@H](O)[C@H](C)O2)C1)C(=O)c1c(OC)cccc1C4=O)[C@@H](C)O)C(=O)N[C@@H](CCCNC(=N)N)C(=O)N[C@@H](CC(N)=O)C(=O)N[C@@H](CC(N)=O)C(=O)N[C@@H](Cc1ccccc1)C(=O)N[C@@H](CCCCN)C(=O)N[C@H](C(=O)N[C@@H](CCC(=O)O)C(=O)N[C@@H](CCC(=O)O)C(=O)N[C@@H](Cc1ccc(O)cc1)C(=O)O)[C@@H](C)O)C[C@@H]3O[C@H]1C[C@H](N)[C@H](O)[C@H](C)O1` [compound 7, Dau=Aoa-TFFYGGSRGK(Dau=Aoa)RNNFKTEEY-OH] as the compound, how does the “toxicity observed during the cellular uptake measurement (live cells in % of untreated control)” value [2] read?
Its value is “slight toxicity”.

What about the IC50 [3] of the same compound?
Its IC50 is 7.8 ± 6.3 µM.

Which “smallest metabolite H-Lys(Dau=Aoa)-OH at 1 h” value ([1]; 1:1 protein:peptide m/m, 0.2 M sodium acetate pH 5.03, 37 °C, 1 h) does the source give for `COc1cccc2c1C(=O)c1c(O)c3c(c(O)c1C2=O)C[C@@](O)(C(C)=NOCC(=O)NCCCC[C@H](NC(=O)CNC(=O)[C@H](CCCNC(=N)N)NC(=O)[C@H](CO)NC(=O)CNC(=O)CNC(=O)[C@H](Cc1ccc(O)cc1)NC(=O)[C@H](Cc1ccccc1)NC(=O)[C@H](Cc1ccccc1)NC(=O)[C@@H](N)[C@@H](C)O)C(=O)N[C@@H](CCCNC(=N)N)C(=O)N[C@@H](CC(N)=O)C(=O)N[C@@H](CC(N)=O)C(=O)N[C@@H](Cc1ccccc1)C(=O)N[C@@H](CCCCN)C(=O)N[C@H](C(=O)N[C@@H](CCC(=O)O)C(=O)N[C@@H](CCC(=O)O)C(=O)N[C@@H](Cc1ccc(O)cc1)C(=O)O)[C@@H](C)O)C[C@@H]3O[C@H]1C[C@H](N)[C@H](O)[C@H](C)O1` [compound 4, H-TFFYGGSRGK(Dau=Aoa)RNNFKTEEY-OH] here?
The value was “not detectable”.

What about the “release of the smallest metabolite H-Lys(Dau=Aoa)-OH (in words)” value ([1]; pH 5.03, 37 °C, up to 72 h) of the same compound?
The value was “not efficiently released”.

What about the IC50 [3] of the same compound?
The IC50 was 24 ± 5.9 µM.
